Source: patent US20220243213A1, “ANTI-CRISPR INHIBITORS” (THE REGENTS OF THE UNIVERSITY OF CALIFORNIA, published 2022)
Positions count from the first letter of the chain named.

Key:
[1] = test system: AcrIIA1 (phage A006) (Listeria phage A006); assay: MST; conditions: 34 nM stated in Example 5 (p151)
[2] = test system: AcrIIA1 NTD (Listeria phage A006); assay: MST
[3] = target: Listeria monocytogenes Cas9 (LmoCas9) (Listeria monocytogenes); assay: cell-based or functional assay
Aca2 ZF40 = target: T1, Aca2 ZF40 (Pectobacterium phage ZF40, UniProt H9C180 H9C180:1-116); assay: cell_activity; lacZ reporter in E. coli; text listing of SEQ 6 differs from the Table 8 sequence for this accession; conditions: chain copies: 2
T1 sequence: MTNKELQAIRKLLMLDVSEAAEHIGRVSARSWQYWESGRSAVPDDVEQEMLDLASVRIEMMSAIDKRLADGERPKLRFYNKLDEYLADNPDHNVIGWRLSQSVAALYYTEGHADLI
Text: By aligning the intergenic regions found immediately upstream of anti-CRISPR genes associated with aca2, we detected a conserved inverted repeat sequence that could act as a binding site for Aca2 proteins (FIG. 11B). […] To investigate the functions of Aca2 and Aca3, the acrlaca regions from Pectobacterium phage ZF40 and from N. meningitidis strain 2842STDY5881035 were investigated as representatives of the Aca2 and Aca3 families, respectively. The putative promoter regions of the anti-CRISPR genes in these two operons (FIGS. 11B and 11D) were cloned upstream of a promoterless lacZ reporter gene carried on a plasmid. When assayed in E. coli, both regions mediated robust transcription of the reporter as detected by measuring β-galactosidase activity in cell extracts (FIG. 7).
β-galactosidase reporter assays. β-galactosidase reporter plasmids were transformed into DH5a and PA14. Overnight cultures of transformed cells were subcultured 1:100 and grown for ˜3 hours with shaking (OD₆₀₀=0.4-0.7). β-galactosidase activity was then quantified using a method derived from Zhang and Bremer, 1995. […] The reaction was stopped with the addition of 700 μL of 1 M Na₂CO₃, A420 and A550 were measured, and Miller Units were calculated.

Aca1 R44A = target: T2, Aca1 R44A (Pseudomonas aeruginosa phage JBD30, R44A); assay: EMSA; binding completely abolished; 10-500 nM; conditions: tags: p15TV-L expression, Ni-NTA purified; chain copies: 2 (inferred)
T2 chain: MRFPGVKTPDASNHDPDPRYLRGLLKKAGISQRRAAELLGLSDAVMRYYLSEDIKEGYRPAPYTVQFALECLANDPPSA
Method: FIG. 4A: Representative electrophoretic mobility shift assays with indicated Aca1 mutants using the 110 bp upstream region from phage JBD30 as a substrate. Purified protein was added at concentrations of 10 nM, 50 nM, 100 nM, 250 nM and 500 nM. […] Non-denaturing acrylamide gels stained with SYBR gold are shown. FIG. 4B: The anti-CRISPR promoter region from phage JBD30 was cloned upstream of a promoterless lacZ gene. β-galactosidase activity was measured in a wild-type JBD30 lysogen (WT Aca1), JBD30 Aca1 mutant lysogens as indicated, and wild-type PA14 with no prophage (−). The mean from three independent experiments relative to the wild-type Aca1 JBD30 lysogen is shown, with error bars representing the standard error of the mean. FIG. 4C: Lysates of phage JBD30 (WT or Aca1R44A mutant) were spotted in 10-fold serial dilutions on bacterial lawns of wild-type P. aeruginosa PA14, a CRISPR deletion version of PA14 (PA14ΔCRISPR), or on the deletion strain bearing a plasmid that expresses Aca1. These phages are targeted by the CRISPR-Cas system in the absence of anti-CRISPR activity. Representative images from three biological replicates are shown. […] FIG. 4E: The transcript levels of the acrIF1 and aca1 genes in phages bearing anti-CRISPR promoter operator mutants and aca mutants were determined by RT-qPCR. […]

Aca1 (in cell) = target: T3, Aca1 (in cell) (Pseudomonas aeruginosa phage JBD30); assay: cell_activity; lacZ reporter in P. aeruginosa JBD30 lysogen
T3 chain: T2 chain with A44R

Aca1 [4] = target: T4, Aca1 (Pseudomonas aeruginosa phage JBD30); assay: EMSA; 10 mM HEPES pH 7.5, 1 mM MgCl2, 20 mM KCl, 1 mM TCEP, 6% glycerol, on ice; second shifted band at higher concentrations; conditions: tags: p15TV-L expression, Ni-NTA purified; chain copies: 2 (inferred; HTH proteins stated generally dimeric)
T4 chain: T2 chain with A44R
Text: Aca1 acts on the acr promoter. Aca1 proteins are bioinformatically predicted to contain a helix-turn-helix (HTH) DNA-binding motif (FIG. 8A). HTH-containing proteins are generally dimeric and bind to inverted repeat sequences. We identified two such sites with very similar sequences which we refer to as IR1 and IR2, flanking the −35 region of the acrIF1 promoter (FIG. 3B). To determine whether Aca1 could bind to the anti-CRISPR promoter region, purified Aca1 was mixed with a 110 bp dsDNA fragment containing the acr promoter and an electrophoretic mobility shift assay (EMSA) was performed. […] At higher Aca1 concentrations, a second shifted band was observed, consistent with the presence of two Aca1 binding sites within this fragment.
Electrophoretic mobility shift assay. Varying concentrations of purified Aca1 or Aca1 mutants were mixed with 20 ng of target DNA (gel purified PCR product or annealed oligo) in binding buffer (10 mM HEPES pH 7.5, 1 mM MgCl₂, 20 mM KCl, 1 mM TCEP, 6% v/v glycerol) and incubated on ice for 20 minutes. The DNA-protein complexes were separated by gel electrophoresis at 100 V on a 6% native 0.5× TBE polyacrylamide gel. Gels were stained at room temperature with Sybr gold (Invitrogen) and visualized according to the supplier's instructions. Bands were quantified using Image Lab 6.0 software (BioRad). […]

Aca1 [5] = target: T4, Aca1; assay: EMSA; two shifted bands; 10-250 nM Aca1; conditions: tags: p15TV-L expression, Ni-NTA purified; chain copies: 2 (inferred; HTH proteins stated generally dimeric)
Method: (§1) FIG. 3E: Electrophoretic mobility shift assays (EMSAs) were performed utilizing a fragment of dsDNA with the sequence shown, which encompasses the acr promoter region. The IR1 and IR2 mutants contained the triple and quadruple base substitutions indicated under the DNA sequence. Representative non-denaturing polyacrylamide gels stained with SYBR gold are shown. Purified Aca1 was added to the DNA at concentrations of 10 nM, 50 nM, 100 nM and 250 nM. […] FIG. 3F: The anti-CRISPR promoter region from phage JBD30 either wild-type (WT), or bearing IR1 and/or IR2 mutations was cloned upstream of a promoterless lacZ gene. β-galactosidase activity was measured in PA14 (−Aca1) or in a JBD30 lysogen (+Aca1). The mean β-galactosidase activity relative to the wild-type promoter is shown, with error bars representing standard error of the mean (n≥3). FIG. 3G: Ten-fold dilutions of lysates of anti-CRISPR phage JBD30 carrying the indicated inverted repeat mutations were applied to lawns of CRISPR-Cas intact PA14 or CRISPR deleted PA14 (PA14ΔCRISPR). Representative images from three biological replicates are shown.
Aca1 acts on the acr promoter. Aca1 proteins are bioinformatically predicted to contain a helix-turn-helix (HTH) DNA-binding motif (FIG. 8A). HTH-containing proteins are generally dimeric and bind to inverted repeat sequences. […]

Aca1 [6] = target: T4, Aca1; assay: EMSA; no shift up to 250 nM; conditions: tags: p15TV-L expression, Ni-NTA purified; chain copies: 2 (inferred; HTH proteins stated generally dimeric)
Method: as §1, with “Representative” for “FIG. 3E: Electrophoretic mobility shift assays (EMSAs) were performed utilizing a fragment of dsDNA with the sequence shown, which encompasses the acr promoter region. The IR1 and IR2 mutants contained the triple and quadruple base substitutions indicated under the DNA sequence. Representative”
Aca1 acts on the acr promoter. Aca1 proteins are bioinformatically predicted to contain a helix-turn-helix (HTH) DNA-binding motif (FIG. 8A). HTH-containing proteins are generally dimeric and bind to inverted repeat sequences. We identified two such sites with very similar sequences which we refer to as IR1 and IR2, flanking the −35 region of the acrIF1 promoter (FIG. 3B). […]

phage A006 anti-CRISPR promoter palindrome
Kd [1]: 26 nM | Kd [2]: 28 nM

AcrIIA1 (full-length, from Listeria phage ΦA006)
Nanoluciferase (NLuc) expression from the anti-CRISPR locus promoter, fold change in RLU, ΦA006acr::nluc lysogen [3]: 5 fold

B1: ZF40 acrIF8 promoter region (dsDNA)
DNA 1: AGCCTCACCTCCGGCGTTGCCGTGGCGCTGTGTGATTTACAGGAAATAAAAAGGCCACGAATGCGGCCTTAGCGATTAAAAAATATGAAATGCCTTGCTTGTTCGCGATTGCGAACATATAATTTATTCATCGGTTCGAG
DNA 2: CTCGAACCGATGAATAAATTATATGTTCGCAATCGCGAACAAGCAAGGCATTTCATATTTTTTAATCGCTAAGGCCGCATTCGTGGCCTTTTTATTTCCTGTAAATCACACAGCGCCACGGCAACGCCGGAGGTGAGGCT
activity (Aca2 ZF40): 100 fold repression

B2: JBD30 acrIF1 promoter 110 bp upstream region (dsDNA)
DNA 1: TGGCCACTTTCGGACAAGCGGCACACTGTGCCTATTGCGAATTAGGCACAATGTGCCTAATCTAACGTCATGCCAGCCACAACGGCGAGGCGCCAACAAGGATTCAAACC
DNA 2: GGTTTGAATCCTTGTTGGCGCCTCGCCGTTGTGGCTGGCATGACGTTAGATTAGGCACATTGTGCCTAATTCGCAATAGGCACAGTGTGCCGCTTGTCCGAAAGTGGCCA
binding result (Aca1 R44A): no binding | activity (Aca1 (in cell)): 5 fold repression | Kd (Aca1 [4]): ~50 nM

B3: acrIF1 promoter IR1-IR2 oligo WT (dsDNA)
DNA 1: ACAAGCGGCACACTGTGCCTATTGCGAATTAGGCACAATGTGCCTAATCTAACG
DNA 2: CGTTAGATTAGGCACATTGTGCCTAATTCGCAATAGGCACAGTGTGCCGCTTGT
binding result (Aca1 [5]): binds

B4: IR1+IR2 mutant oligo (dsDNA)
DNA 1: ACAAGCGTCGTACTGTGCCTATTGCGAGCTAGTCCCAATGTGCCTAATCTAACG
DNA 2: CGTTAGATTAGGCACATTGGGACTAGCTCGCAATAGGCACAGTACGACGCTTGT
binding result (Aca1 [6]): no binding
